Reference: PMC5527709 (Drug delivery and translational research, 2013)

T1: human CD133 protein (coated on ELISA wells) (human) (UniProt O43490)
T1 sequence: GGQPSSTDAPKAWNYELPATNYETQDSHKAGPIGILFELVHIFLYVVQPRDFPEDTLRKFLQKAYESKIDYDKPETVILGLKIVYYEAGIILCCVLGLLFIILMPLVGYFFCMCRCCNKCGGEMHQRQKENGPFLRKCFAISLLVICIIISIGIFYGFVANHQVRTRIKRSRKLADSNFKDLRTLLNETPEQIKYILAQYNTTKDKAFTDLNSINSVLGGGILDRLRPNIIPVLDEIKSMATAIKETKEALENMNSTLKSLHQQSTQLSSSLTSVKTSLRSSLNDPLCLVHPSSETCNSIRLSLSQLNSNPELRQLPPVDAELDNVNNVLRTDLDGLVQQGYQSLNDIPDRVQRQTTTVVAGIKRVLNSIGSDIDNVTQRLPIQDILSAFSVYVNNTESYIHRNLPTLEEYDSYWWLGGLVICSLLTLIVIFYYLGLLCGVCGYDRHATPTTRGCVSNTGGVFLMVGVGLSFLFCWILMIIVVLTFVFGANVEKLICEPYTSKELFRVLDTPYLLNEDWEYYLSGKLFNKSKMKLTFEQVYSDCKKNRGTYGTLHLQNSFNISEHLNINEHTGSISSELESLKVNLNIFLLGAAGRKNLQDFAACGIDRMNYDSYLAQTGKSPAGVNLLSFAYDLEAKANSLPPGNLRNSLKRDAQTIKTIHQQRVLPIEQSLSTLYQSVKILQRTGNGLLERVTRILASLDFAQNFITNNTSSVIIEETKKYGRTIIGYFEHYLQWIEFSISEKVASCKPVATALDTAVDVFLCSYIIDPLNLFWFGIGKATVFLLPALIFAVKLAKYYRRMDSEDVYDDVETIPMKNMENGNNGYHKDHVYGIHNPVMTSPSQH


Legend:
[1] = biological target: T1, human CD133 protein (coated on ELISA wells) (human); assay: ELISA
[2] = biological target: human CD133 on Caco-2 cells (Homo sapiens, endogenous in Caco-2, UniProt O43490); assay: flow cytometry on cells

absorbance at 450 nm [1] [AU]	binding result [2]	Binder
0.9		anti-CD133 scFv clone 11, HA-tagged, secreted into bacterial culture supernatant (scFv, V domains shown) VH: EVKLVESGPELKKPGETVKISCKASGYTFTDYSMHWVNQAPGKGLKWMGWINTETGEPSYADDFKGRFAFSLETSASTAYLQINNLKNEDTATYFCATDYGDYFDYWGQGTTLTVSS VL: DIVLSQSPAIMSASPGEKVTISCSASSSVSYMYWYQQKPGSSPKPWIYRTSNLASGVPARFSGSGSGTSYSLTISSMEAEDAATYYCQQYHSYPPTFGAGTKLELK
	binds	anti-CD133 scFv (clone 11) without HA epitope tag, FITC-labelled (scFv, V domains shown) VH: EVKLVESGPELKKPGETVKISCKASGYTFTDYSMHWVNQAPGKGLKWMGWINTETGEPSYADDFKGRFAFSLETSASTAYLQINNLKNEDTATYFCATDYGDYFDYWGQGTTLTVSS VL: DIVLSQSPAIMSASPGEKVTISCSASSSVSYMYWYQQKPGSSPKPWIYRTSNLASGVPARFSGSGSGTSYSLTISSMEAEDAATYYCQQYHSYPPTFGAGTKLELK
